Data published in patent US5210024A, “Isolation of strains of Saccharomyces cerevisiae having altered α-acetyltransferase activity” (priority 1991, dated 1993).

Experiments:
[1] = molecular target: T1, N^α -AT (AAA1 N^α -acetyltransferase) (Saccharomyces cerevisiae, UniProt P07347+P12945); assay: N^α-acetylation of synthetic peptides by AAA1 N^α-acetyltransferase ([3H]acetyl coenzyme A incorporation); assay type: biochemical; set-up: concentration or dose not given beside the values
T1 construct: isolates N^α -acetyltransferase by treating yeast cells with lyticase; endogenous in cells; host or cells: Saccharomyces cerevisiae cells (native enzyme)
T1 sequence (P12945 2-854): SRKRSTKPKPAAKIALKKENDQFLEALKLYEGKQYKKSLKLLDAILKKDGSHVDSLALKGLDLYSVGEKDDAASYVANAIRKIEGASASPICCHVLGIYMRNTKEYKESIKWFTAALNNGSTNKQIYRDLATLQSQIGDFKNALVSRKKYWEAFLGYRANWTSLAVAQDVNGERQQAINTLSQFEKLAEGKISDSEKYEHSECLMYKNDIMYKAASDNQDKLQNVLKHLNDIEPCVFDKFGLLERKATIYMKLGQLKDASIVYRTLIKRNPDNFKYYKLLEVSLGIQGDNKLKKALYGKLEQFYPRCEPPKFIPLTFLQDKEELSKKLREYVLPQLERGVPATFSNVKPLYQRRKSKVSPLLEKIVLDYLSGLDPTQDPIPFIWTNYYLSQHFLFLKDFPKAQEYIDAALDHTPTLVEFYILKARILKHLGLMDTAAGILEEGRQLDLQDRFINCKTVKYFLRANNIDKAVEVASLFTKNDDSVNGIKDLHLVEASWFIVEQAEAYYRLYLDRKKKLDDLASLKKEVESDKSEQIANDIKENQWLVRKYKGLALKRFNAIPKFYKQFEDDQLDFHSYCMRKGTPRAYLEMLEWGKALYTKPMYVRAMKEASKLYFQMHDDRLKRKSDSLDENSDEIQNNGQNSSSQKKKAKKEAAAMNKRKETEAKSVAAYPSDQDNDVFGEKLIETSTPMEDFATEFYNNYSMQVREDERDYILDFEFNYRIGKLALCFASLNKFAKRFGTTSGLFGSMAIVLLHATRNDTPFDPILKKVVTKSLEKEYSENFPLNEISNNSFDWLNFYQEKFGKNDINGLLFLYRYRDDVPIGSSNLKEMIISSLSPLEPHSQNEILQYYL
T1 sequence (P07347 1-238): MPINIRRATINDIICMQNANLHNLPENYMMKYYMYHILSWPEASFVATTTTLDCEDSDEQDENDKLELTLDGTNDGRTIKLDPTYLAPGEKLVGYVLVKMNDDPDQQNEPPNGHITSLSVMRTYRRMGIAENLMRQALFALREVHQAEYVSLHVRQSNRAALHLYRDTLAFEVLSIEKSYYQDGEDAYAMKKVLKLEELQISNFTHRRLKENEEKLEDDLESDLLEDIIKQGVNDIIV
Protocol: (§1) Aliquots of the lysate were added to 1.5 ml Eppendorf tubes containing a reaction mixture of 50 mM HEPES, pH 7.4, 150 mM KCl, 1 mM DTT, 25 μM[^3 H]acetyl coenzyme A (0.5 μCi) and 50 μM ACTH (1-24) with an adjusted final volume of 100 μl. The assay mixture was incubated at 30 C for 30 min. The reaction was stopped by adding 0.5 M acetic acid and chilled in an ice bath. […] The radioactivity in the control represented acetylation of endogenous compounds is subtracted from each sample determination. One unit of activity is defined as 1 pmol of acetyl residues incorporated into ACTH (1-24) under standard assay conditions.
(§2) This second N^α -acetyltransferase is a methionine N^α -acetyltransferase activity, and is designated as "M-N^α -AT." This second N^α -acetyltransferase is the subject of U.S. patent application of John A. Smith and Fang-Jen S. Lee, filed Oct. […] In order to compare the relative specificity and activity of the AAA1 N^α -acetyltransferase ("N^α -AT") of the present invention with the methionine N^α -acetyltransferase activity (M-N^α -AT) of U.S. patent application of John A. Smith and Fang-Jen S. Lee, filed Oct. […] These peptides were assessed for their ability to serve as substrates for the two enzymes. In Table 2, the effect of the amino terminal amino acid on activity is investigated; in Table 3, the effect of the penultimate amino terminal amino acid on activity is investigated.

[2] = molecular target: T1, N^α -AT (AAA1 N^α -acetyltransferase); conditions: purified enzyme; Lee et al., J. Biol. Chem. 263:14948-14955 (1988); cited from earlier work
[3] = molecular target: T2, M-N^α -AT (methionine N^α -acetyltransferase) (Saccharomyces cerevisiae, UniProt Q06504); assay: N^α-acetylation of synthetic peptides by methionine N^α-acetyltransferase; assay type: biochemical; set-up: concentration or dose not given beside the values
T2 construct: endogenous in cells; host or cells: Saccharomyces cerevisiae aaa1 (AAA1-null) mutant
T2 sequence (Q06504 1-195): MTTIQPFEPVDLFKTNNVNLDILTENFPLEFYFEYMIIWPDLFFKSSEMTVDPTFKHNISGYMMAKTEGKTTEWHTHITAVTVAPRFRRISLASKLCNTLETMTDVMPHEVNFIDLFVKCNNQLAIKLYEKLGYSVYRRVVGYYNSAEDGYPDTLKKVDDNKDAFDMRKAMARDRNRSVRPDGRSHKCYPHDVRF
T2 sequence (Q12387 2-796 partner limits assumed): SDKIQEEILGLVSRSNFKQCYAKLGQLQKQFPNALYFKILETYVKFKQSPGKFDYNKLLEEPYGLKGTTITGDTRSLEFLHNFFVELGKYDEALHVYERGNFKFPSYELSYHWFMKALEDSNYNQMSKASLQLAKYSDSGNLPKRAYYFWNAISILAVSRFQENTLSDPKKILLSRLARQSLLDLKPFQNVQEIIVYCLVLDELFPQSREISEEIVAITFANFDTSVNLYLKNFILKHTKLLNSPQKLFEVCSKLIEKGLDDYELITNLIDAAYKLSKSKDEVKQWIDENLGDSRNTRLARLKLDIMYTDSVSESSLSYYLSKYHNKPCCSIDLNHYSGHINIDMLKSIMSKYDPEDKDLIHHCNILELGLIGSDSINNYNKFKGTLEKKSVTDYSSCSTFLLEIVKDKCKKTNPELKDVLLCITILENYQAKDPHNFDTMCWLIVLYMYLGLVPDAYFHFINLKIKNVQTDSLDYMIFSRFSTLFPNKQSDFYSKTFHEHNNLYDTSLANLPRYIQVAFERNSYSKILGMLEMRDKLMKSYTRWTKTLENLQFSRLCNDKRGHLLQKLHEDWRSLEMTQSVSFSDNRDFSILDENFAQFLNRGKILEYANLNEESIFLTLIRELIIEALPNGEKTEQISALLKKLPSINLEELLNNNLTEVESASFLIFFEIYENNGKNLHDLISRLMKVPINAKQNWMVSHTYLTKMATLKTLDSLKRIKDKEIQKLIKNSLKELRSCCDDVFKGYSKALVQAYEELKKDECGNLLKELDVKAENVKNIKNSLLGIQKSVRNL
Protocol: as §1, §2

[4] = Table 2: relative activity for N^α-acetylation of synthetic peptide substrate, influence of the amino terminal residue
[5] = Table 3: relative activity for N^α-acetylation of synthetic peptide substrate, influence of the penultimate amino terminal residue

In the case of “SIPETQKGVIFYESHGKLEYKDIP (SIPETQKGVIFYESHGKLEYKDIP) [ALCOHOL DEHYDROGENASE I (1-24) (Yeast), synthetic peptide substrate, yeast alcohol dehydrogenase I residues 1-24, reference compound]”, the “Activity (%) (mean activity ± S.D.) N^α -AT” value [1, 4] is listed as 102 ± 5%, the “Activity (%) (mean activity ± S.D.) N^α -AT” value [1, 5] is listed as 102 ± 5% and the “transfer of an acetyl group to synthetic peptide substrates by purified yeast N^α-acetyltransferase” value (shortened to “transfer of an acetyl group”) [2] is listed as “effectively transfer an acetyl group”. The “Activity (%) (mean activity ± S.D.) M-N^α -AT” value [3, 4] was 0% and the “Activity (%) (mean activity ± S.D.) M-N^α -AT” value [3, 5] was 0%.

For “SRPETQKGVIFYESHGKLEYKDIP (SRPETQKGVIFYESHGKLEYKDIP)”, the “Activity (%) (mean activity ± S.D.) N^α -AT” value [1, 5] was 102 ± 5% and the “Activity (%) (mean activity ± S.D.) M-N^α -AT” value [3, 5] was 0%.

For “SSPETQKGVIFYESHGKLEYKDIP (SSPETQKGVIFYESHGKLEYKDIP)”, the “Activity (%) (mean activity ± S.D.) N^α -AT” value [1, 5] was 140 ± 6% and the “Activity (%) (mean activity ± S.D.) M-N^α -AT” value [3, 5] was 0%.

With “STPETQKGVIFYESHGKLEYKDIP (STPETQKGVIFYESHGKLEYKDIP)” the “Activity (%) (mean activity ± S.D.) N^α -AT” value [1, 5] was 144 ± 8% and the “Activity (%) (mean activity ± S.D.) M-N^α -AT” value [3, 5] was 0%.

In the case of “SVPETQKGVIFYESHGKLEYKDIP (SVPETQKGVIFYESHGKLEYKDIP)”, the “Activity (%) (mean activity ± S.D.) N^α -AT” value [1, 5] is reported as 123 ± 7% and the “Activity (%) (mean activity ± S.D.) M-N^α -AT” value [3, 5] is reported as 0%.

In the case of “SWPETQKGVIFYESHGKLEYKDIP (SWPETQKGVIFYESHGKLEYKDIP)”, the “Activity (%) (mean activity ± S.D.) N^α -AT” value [1, 5] is reported as 91 ± 5% and the “Activity (%) (mean activity ± S.D.) M-N^α -AT” value [3, 5] is reported as 0%.

For “SYPETQKGVIFYESHGKLEYKDIP (SYPETQKGVIFYESHGKLEYKDIP)”, the “Activity (%) (mean activity ± S.D.) N^α -AT” value [1, 5] was 169 ± 8% and the “Activity (%) (mean activity ± S.D.) M-N^α -AT” value [3, 5] was 0%.

For “SYSMEHFRWGKPVGKKRRPVKVYP [ACTH (Human), reference compound]”, the “Activity (%) (mean activity ± S.D.) N^α -AT” value [1, 4] is given as 100 ± 5%, the “Activity (%) (mean activity ± S.D.) N^α -AT” value [1, 5] is given as 100 ± 5% and the “transfer of an acetyl group” value [2] is given as “effectively transfer an acetyl group”. For the same substance, the “Activity (%) (mean activity ± S.D.) M-N^α -AT” value [3, 4] was 0% and the “Activity (%) (mean activity ± S.D.) M-N^α -AT” value [3, 5] was 0%.

In the case of “TIPETQKGVIFYESHGKLEYKDIP (TIPETQKGVIFYESHGKLEYKDIP)”, the “Activity (%) (mean activity ± S.D.) N^α -AT” value [1, 4] is reported as 103 ± 5% and the “Activity (%) (mean activity ± S.D.) M-N^α -AT” value [3, 4] is reported as 0%.

In the case of “VIPETQKGVIFYESHGKLEYKDIP (VIPETQKGVIFYESHGKLEYKDIP)”, the “Activity (%) (mean activity ± S.D.) N^α -AT” value [1, 4] is reported as 69 ± 4% and the “Activity (%) (mean activity ± S.D.) M-N^α -AT” value [3, 4] is reported as 0%.

In the case of “WIPETQKGVIFYESHGKLEYKDIP (WIPETQKGVIFYESHGKLEYKDIP)”, the “Activity (%) (mean activity ± S.D.) N^α -AT” value [1, 4] is reported as 0% and the “Activity (%) (mean activity ± S.D.) M-N^α -AT” value [3, 4] is reported as 0%.

In the case of “YIPETQKGVIFYESHGKLEYKDIP (YIPETQKGVIFYESHGKLEYKDIP)”, the “Activity (%) (mean activity ± S.D.) N^α -AT” value [1, 4] is reported as 20 ± 2% and the “Activity (%) (mean activity ± S.D.) M-N^α -AT” value [3, 4] is reported as 0%.

In the case of “human superoxide dismutase (1-24): synthetic peptide substrate, residues 1-24 of human superoxide dismutase (ATKAVCVLKGDGPVQGIINFEQKE; UniProt P00441 2-25, looked up, fragment)”, the “transfer of an acetyl group” value [2] is listed as “effectively transfer an acetyl group”.
